Experimental data reported in patent US20040018558A1.

Legend:
[1] = target: light-activated rhodopsin (bovine rod outer segment membranes) (bovine) (UniProt P02699); experiment: ELISA, MBP fusion protein on immobilised light-activated rhodopsin
[2] = target: human thrombin receptor (PAR1) (human) (UniProt P25116); experiment: ELISA, purified MBP-Gαq on purified reconstituted PAR1 with thrombin receptor activating peptide
human thrombin receptor (PAR1) (human), sequence (P25116 42-425): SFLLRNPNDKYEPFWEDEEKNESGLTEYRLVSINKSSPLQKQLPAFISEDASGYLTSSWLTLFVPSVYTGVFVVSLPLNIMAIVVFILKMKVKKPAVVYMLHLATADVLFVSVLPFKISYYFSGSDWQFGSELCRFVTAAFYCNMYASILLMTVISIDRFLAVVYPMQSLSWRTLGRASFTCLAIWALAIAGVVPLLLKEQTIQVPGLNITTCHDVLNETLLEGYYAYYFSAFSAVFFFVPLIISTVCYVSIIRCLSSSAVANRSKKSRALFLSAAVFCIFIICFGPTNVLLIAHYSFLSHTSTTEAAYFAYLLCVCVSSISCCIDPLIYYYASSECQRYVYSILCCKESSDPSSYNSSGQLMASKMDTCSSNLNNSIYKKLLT

light-activated rhodopsin (bovine rod outer segment membranes) (bovine), sequence (P02699 whole entry, the tested form may be a part): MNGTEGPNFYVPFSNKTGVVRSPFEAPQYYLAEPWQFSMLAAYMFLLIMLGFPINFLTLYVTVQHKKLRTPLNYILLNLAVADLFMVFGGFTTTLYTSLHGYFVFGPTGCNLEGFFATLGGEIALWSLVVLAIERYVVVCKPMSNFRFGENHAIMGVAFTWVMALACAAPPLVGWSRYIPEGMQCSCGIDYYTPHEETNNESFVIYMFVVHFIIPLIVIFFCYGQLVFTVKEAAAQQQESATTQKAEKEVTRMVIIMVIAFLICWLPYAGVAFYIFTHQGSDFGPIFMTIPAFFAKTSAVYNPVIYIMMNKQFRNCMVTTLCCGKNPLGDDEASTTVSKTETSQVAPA

IC50 [1] [µM]	IC50 [2] [µM]	Substance
6		MBP-Gαt340-350K341R fusion protein (pELM17)
	0.214	maltose binding protein-Gαq (MBP-Gαq), native Gq peptide fusion
